One block for each sequence: values may come before it.
Key:
HLA-B*07:02 = experiment: IEDB peptide-MHC binding, purified MHC/competitive/radioactivity; filed as Kd, often an IC50 or EC50 that approximates it; ≥ and ≤ were set here for values at or beyond the usual limits of such assays
HLA-B*35:01 = experiment: as above
HLA-B*51:01 = experiment: as above
HLA-B*53:01 = experiment: as above
HLA-B*54:01 = experiment: as above
HLA-B*18:01 = experiment: IEDB peptide-MHC binding, purified MHC/direct/fluorescence; filed as Kd, often an IC50 or EC50 that approximates it; ≥ and ≤ were set here for values at or beyond the usual limits of such assays
HLA-B*40:01 = experiment: as above
HLA-A*02:01 = experiment: IEDB peptide-MHC binding, purified MHC/competitive/radioactivity; filed as Kd, often an IC50 or EC50 that approximates it; ≥ and ≤ were set here for values at or beyond the usual limits of such assays
HLA-A*02:02 = experiment: as above
HLA-A*02:03 = experiment: as above
HLA-A*02:06 = experiment: as above
HLA-A*68:02 = experiment: as above
HLA-A*03:01 [1] = experiment: as above; details: source organism: Vaccinia virus Copenhagen
HLA-A*11:01 = experiment: as above; details: source organism: Vaccinia virus Copenhagen
HLA-A*31:01 = experiment: as above; details: source organism: Vaccinia virus Copenhagen
HLA-A*33:01 = experiment: as above; details: source organism: Vaccinia virus Copenhagen
HLA-A*68:01 = experiment: as above; details: source organism: Vaccinia virus Copenhagen
HLA-A*03:01 [2] = experiment: IEDB peptide-MHC binding, purified MHC/competitive/fluorescence; filed as Kd, often an IC50 or EC50 that approximates it; ≥ and ≤ were set here for values at or beyond the usual limits of such assays
HLA-B*15:01 = experiment: as above; details: source organism: Shigella flexneri 5 str. 8401
HLA-B*44:02 = experiment: IEDB peptide-MHC binding, purified MHC/direct/fluorescence; filed as Kd, often an IC50 or EC50 that approximates it; ≥ and ≤ were set here for values at or beyond the usual limits of such assays; details: source organism: Influenza A virus (A/duck/Guangxi/1586/2004(H5N1))
[3] = source organism: Lymphocytic choriomeningitis virus (strain Armstrong)
[4] = source organism: Vaccinia virus WR
[5] = source organism: Mammarenavirus lassaense
[6] = source organism: Mammarenavirus juninense
[7] = source organism: Triticum aestivum
[8] = source organism: Vaccinia virus Copenhagen
[9] = source organism: Giardia lamblia ATCC 50803
[10] = source organism: SARS coronavirus Tor2
[11] = source organism: Orthohantavirus dobravaense
[12] = source organism: Trypanosoma cruzi
[13] = source organism: Influenza A virus (A/duck/Guangxi/1586/2004(H5N1))

Sequence: MPSLTMACM
- Kd (HLA-B*07:02; [3]): 112 nM
- Kd (HLA-B*35:01; [3]): 5.44 nM
- Kd (HLA-B*51:01; [3]): 881 nM
- Kd (HLA-B*53:01; [3]): 2160 nM
- Kd (HLA-B*54:01; [3]): 1290 nM

Sequence: DPPIPYSRV
- Kd (HLA-B*07:02; [4]): ≥ 77500 nM
- Kd (HLA-B*35:01; [4]): ≥ 53400 nM
- Kd (HLA-B*51:01; [4]): 31 nM
- Kd (HLA-B*53:01; [4]): ≥ 31500 nM
- Kd (HLA-B*54:01; [4]): 320 nM

Sequence: VENSPRASL
- Kd (HLA-B*18:01; [5]): 552 nM
- Kd (HLA-B*40:01; [5]): 114 nM

Sequence: TPENFSSLI
- Kd (HLA-B*07:02; [6]): 8260 nM
- Kd (HLA-B*35:01; [6]): ≥ 38700 nM
- Kd (HLA-B*51:01; [6]): 1960 nM
- Kd (HLA-B*53:01; [6]): 1320 nM
- Kd (HLA-B*54:01; [6]): ≥ 78100 nM

- Kd (HLA-A*02:01; source organism: Homo sapiens): 1160 nM
- Kd (HLA-A*02:02; source organism: Homo sapiens): 134 nM
- Kd (HLA-A*02:03; source organism: Homo sapiens): 1220 nM
- Kd (HLA-A*02:06; source organism: Homo sapiens): ≥ 30400 nM
- Kd (HLA-A*68:02; source organism: Homo sapiens): 50.6 nM
Sequence: ELNDRLAVYI

- Kd (HLA-A*02:01; [7]): 972 nM
- Kd (HLA-A*02:02; [7]): 770 nM
- Kd (HLA-A*02:03; [7]): 254 nM
- Kd (HLA-A*02:06; [7]): 132 nM
- Kd (HLA-A*68:02; [7]): 5790 nM
Sequence: SQCQAIHNV

- Kd (HLA-A*02:01; source organism: Homo sapiens): 15000 nM
- Kd (HLA-A*02:06; source organism: Homo sapiens): ≥ 72500 nM
Sequence: DMKKKMEDSV

Sequence: LILSCIFAFI
- Kd (HLA-A*02:02; [8]): 5.22 nM
- Kd (HLA-A*02:03; [8]): 19.9 nM
- Kd (HLA-A*02:06; [8]): 42.5 nM
- Kd (HLA-A*03:01 [1]): 947 nM
- Kd (HLA-A*11:01): 5710 nM
- Kd (HLA-A*31:01): 254 nM
- Kd (HLA-A*33:01): 1860 nM
- Kd (HLA-A*68:01): 658 nM
- Kd (HLA-A*68:02; [8]): 17.5 nM
- Kd (HLA-B*07:02; [8]): ≥ 69600 nM
- Kd (HLA-B*35:01; [8]): ≥ 36600 nM
- Kd (HLA-B*51:01; [8]): 17200 nM
- Kd (HLA-B*53:01; [8]): 1840 nM
- Kd (HLA-B*54:01; [8]): 1520 nM

Sequence: LMLASSAGK
- Kd (HLA-A*03:01 [2]; [9]): 7.8 nM

Sequence: FPQVGGLTSI
- Kd (HLA-B*07:02; [10]): 162 nM
- Kd (HLA-B*35:01; [10]): 609 nM
- Kd (HLA-B*51:01; [10]): 76.8 nM
- Kd (HLA-B*53:01; [10]): 24 nM
- Kd (HLA-B*54:01; [10]): 25.7 nM

Sequence: NVSIPWTHK
- Kd (HLA-A*02:01; source organism: Hepatitis B virus subtype adw2): ≥ 35000 nM

Sequence: APKQVAGTGV
- Kd (HLA-B*07:02; [4]): 10.9 nM
- Kd (HLA-B*35:01; [4]): ≥ 69900 nM
- Kd (HLA-B*51:01; [4]): ≥ 61000 nM
- Kd (HLA-B*53:01; [4]): ≥ 69900 nM
- Kd (HLA-B*54:01; [4]): 266 nM

Sequence: SEVTTCFFL
- Kd (HLA-B*18:01; [11]): 48.5 nM
- Kd (HLA-B*40:01; [11]): 12.7 nM

Sequence: GITRPTTVV
- Kd (HLA-A*02:01; [12]): ≥ 50700 nM
- Kd (HLA-A*02:02; [12]): 14000 nM
- Kd (HLA-A*02:03; [12]): 795 nM
- Kd (HLA-A*02:06; [12]): 6130 nM
- Kd (HLA-A*68:02; [12]): 3150 nM

- Kd (HLA-B*07:02; [7]): 9630 nM
- Kd (HLA-B*35:01; [7]): ≥ 40700 nM
- Kd (HLA-B*51:01; [7]): 353 nM
- Kd (HLA-B*53:01; [7]): ≥ 63700 nM
- Kd (HLA-B*54:01; [7]): ≥ 63700 nM
Sequence: QPQLPYPQPQL

Sequence: NELQTLPSL
- Kd (HLA-A*03:01 [2]; source organism: Shigella flexneri 5 str. 8401): ≥ 20000 nM
- Kd (HLA-B*15:01): ≥ 20000 nM

Sequence: LMLASSAGH
- Kd (HLA-A*03:01 [2]; [9]): 559 nM

Sequence: REILTKTTV
- Kd (HLA-B*18:01; [13]): 358 nM
- Kd (HLA-B*40:01; [13]): 4.9 nM
- Kd (HLA-B*44:02): ≥ 47800 nM

Sequence: EPSGNNYHI
- Kd (HLA-B*07:02; [4]): 1420 nM
- Kd (HLA-B*35:01; [4]): ≥ 44300 nM
- Kd (HLA-B*51:01; [4]): 692 nM
- Kd (HLA-B*53:01; [4]): 20.3 nM
- Kd (HLA-B*54:01; [4]): 1580 nM
